We go through four molecules from publication PMC8809517, “Cofactor-independent RNA editing by a synthetic S-type PPR protein”.

Numbering of substitutions follows the chain as printed.

Holding throughout (assay): high-throughput RNA pulldown from lysate on Ni-NTA beads; HRP: 50 mM Tris pH 8, 150 mM NaCl, 1 mM beta-mercaptoethanol, 50 ug/ml BSA, 3 ug/ml yeast RNA, 0.5% heparin; ITC and FP: Tris pH 8, 200 mM KCl, 5% glycerol; MST: 50 mM Tris pH 8, 200 mM NaCl, 1 mM DTT, BSA, heparin, 0.05% Tween 20
Common to all, as to conditions: tags: N-terminal His-eGFP

The target in series [1] is T1, GFP-9S library array, motif 4 ND N98T;D124L (synthetic construct, N98T;D124L).
T1 chain: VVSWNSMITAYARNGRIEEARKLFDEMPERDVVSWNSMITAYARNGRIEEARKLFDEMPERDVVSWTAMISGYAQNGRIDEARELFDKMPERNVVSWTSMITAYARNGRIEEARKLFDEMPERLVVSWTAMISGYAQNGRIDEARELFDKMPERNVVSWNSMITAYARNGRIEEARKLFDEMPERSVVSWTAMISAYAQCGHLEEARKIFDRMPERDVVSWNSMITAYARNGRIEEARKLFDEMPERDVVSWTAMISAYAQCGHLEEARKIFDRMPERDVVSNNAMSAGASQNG

Series [2] addresses T2, GFP-9S library array, motif 4 ND N98S;D124H (synthetic construct, N98S;D124H).
T2 chain: T1 chain with T98S, L124H

For series [3], the target named is T3, GFP-9S library array, motif 4 ND N98A;D124Y (synthetic construct, N98A;D124Y).
T3 chain: T1 chain with T98A, L124Y

In series [4] the target is T4, GFP-9S library array, motif 4 ND D124W (synthetic construct, D124W).
T4 chain: T1 chain with T98N, L124W

Series [5] addresses T5, GFP-9S library array, motif 4 ND N98F;D124G (synthetic construct, N98F;D124G).
T5 chain: T1 chain with T98F, L124G

The Kd is a measure of binding affinity in units of concentration. A higher Kd goes with lower affinity. For AUUAGACGUGA (ssRNA) [Cy5-rpoA-G], the equilibrium dissociation constant (Kd) in series [1] (label: 5' Cy5) came to 120 nM; in series [2] (label: 5' Cy5) it was 99.4 nM; in series [3] (label: 5' Cy5) it was 68.5 nM; in series [4] (label: 5' Cy5) it was 89.4 nM; in series [5] (label: 5' Cy5) it was 75.9 nM.

Consider AUUAUACGUGA (ssRNA) [IR-rpoA-U], for which the Kd in series [1] (label: 5' IRDye 800CW) stood at 174 nM; in series [2] (label: 5' IRDye 800CW), 101 nM; in series [3] (label: 5' IRDye 800CW), 175 nM; in series [4] (label: 5' IRDye 800CW) it was 210 nM; in series [5] (label: 5' IRDye 800CW), 124 nM.

With AUUAAACGUGA (ssRNA) [IR-rpoA-A], the Kd in series [1] (label: 5' IRDye 800CW) is 169 nM; in series [2] (label: 5' IRDye 800CW), 53.5 nM; in series [3] (label: 5' IRDye 800CW), 172 nM; in series [4] (label: 5' IRDye 800CW), 164 nM; in series [5] (label: 5' IRDye 800CW) it was 139 nM.

With AUUACACGUGA (ssRNA) [Cy5-rpoA], the Kd in series [1] (label: 5' Cy5) was determined as 120 nM; in series [2] (label: 5' Cy5), 122 nM; in series [3] (label: 5' Cy5), 82.5 nM; in series [4] (label: 5' Cy5) it was 78.7 nM; in series [5] (label: 5' Cy5), 74.1 nM.
